Reference: publication PMC4148453
Values joined by “and” are separate entries in the source; they are usually repeats but may differ in a detail not shown here. Equal entries are not always repeated.

What was measured:
Assay in all cases: EMSA
Settings in all cases: 10 mM Tris-Cl pH 8.0, 1 mM DTT, 10% glycerol, 5 mM MgCl2, 10 mM KCl, with 50 mM acetyl phosphate when indicated; EMSA 30 min at 37 C; footprint at room …
[1] = tested on: 6His-BfmR (Pseudomonas aeruginosa MPAO1)
[2] = tested on: 6His-BfmR (Pseudomonas aeruginosa MPAO1); remark: listed apart in the source
[3] = tested on: 6His-BfmR D55A (Pseudomonas aeruginosa MPAO1)

bfmR promoter
Kd [1]: 0.2 µM and > 0.6 µM
Kd [2]: < 0.4 µM
Kd [3]: > 0.6 µM
